Results as given in paper PMC11098746 (2024).
No end group written: not given here.

B1: ADP322 (protein)
chain: MAALGPALLQALWAGWVLTLQPLPPTAFTPNGTYLQHLARDPTSGTLYLGATNFLFQLSPGLQLEATVSTGPVLDSRDCLPPVMPDECPQAQPTNNPNQLLLVSPGALVVCGSVHQGVCEQRRLGQLEQLLLRPERPGDTQYVAANDPAVSTVGLVAQGLAGEPLLFVGRGYTSRGVGGGIPPITTRALWPPDPQAAFSYEETAKLAVGRLSEYSHHFVSAFARGASAYFLFLRRDLQAQSRAFRAYVSRVCLRDQHYYSYVELPLACEGGRYGLIQAAAVATSREVAHGEVLFAAFSSAAPPTVGRPPSAAAGASGASALCAFPLDEVDRLANRTRDACYTREGRAEDGTEVAYIEYDVNSDCAQLPVDTLDAYPCGSDHTPSPMASRVPLEATPILEWPGIQLTAVAVTMEDGHTIAFLGDSQGQLHRVYLGPGSDGHPYSTQSIQQGSAVSRDLTFDGTFEHLYVMTQSTLLKVPVASCAQHLDCASCLAHRDPYCGWCVLLGRCSRRSECSRGQGPEQWLWSFQPELGCLQVAAMSPANISREETREVFLSVPDLPPLWPGESYSCHFGEHQSPALLTGSGVMCPSPDPSEAPVLPRGADYVSVSVELRFGAVVIAKTSLSFYDCVAVTELRPSAQCQACVSSRWGCNWCVWQHLCTHKASCDAGPMVASHQSPLVSPDPPARGGPSPSPPTAPKALATPAPDTLPVEPGAPSTATASDISPGASPSLLSPWGPWAGSGSISSPGSTGSPLHEEPSPPSPQNGPGTAVPAPTDFRPSATPEDLLASPLSPSEVAAVPPADPGPEALHPTVPLDLPPATVPATTFPGAMGSVKPALDWLTREGGELPEADEWTGGDAPAFSTSTLLSGDGDSAELEGPPAPLILPSSLDYQYDTPGLWELEEATLGASSCPCVESVQGSTLMPVHVEREIRLLGRNLHLFQDGPGDNECVMELEGLEVVVEARVECEPPPDTQCHVTCQQHQLSYEALQPELRVGLFLRRAGRLRVDSAEGLHVVLYDCSVGHGDCSRCQTAMPQYGCVWCEGERPRCVTREACGEAEAVATQCPAPLIHSVEPLTGPVDGGTRVTIRGSNLGQHVQDVLGMVTVAGVPCAVDAQEYEVSSSLVCITGASGEEVAGATAVEVPGRGRGVSEHDFAYQDPKVHSIFPARGPRAGGTRLTLNGSKLLTGRLEDIRVVVGDQPCHLLPEQQSEQLRCETSPRPTPATLPVAVWFGATERRLQRGQFKYTLDPNITSAGPTKSFLSGGREICVRGQNLDVVQTPRIRVTVVSRMLQPSQGLGRRRRVVPETACSLGPSCSSQQFEEPCHVNSSQLITCRTPALPGLPEDPWVRVEFILDNLVFDFATLNPTPFSYEADPTLQPLNPEDPTMPFRHKPGSVFSVEGENLDLAMSKEEVVAMIGDGPCVVKTLTRHHLYCEPPVEQPLPRHHALREAPDSLPEFTVQMGNLRFSLGHVQYDGESPGAFPVAAQ
modifications: bait human Fc-tagged dimer
B2: ADP389 (protein)
chain: PSSLSQEQSEQDAIYQNLTQLKAAVGELSEKSKLQEIYQELTQLKAAVGELPEKSKLQEIYQELTRLKAAVGELPEKSKLQEIYQELTRLKAAVGELPEKSKLQEIYQELTRLKAAVGELPEKSKLQEIYQELTELKAAVGELPEKSKLQEIYQELTQLKAAVGELPDQSKQQQIYQELTDLKTAFERLCRHCPKDWTFFQGNCYFMSNSQRNWHDSVTACQEVRAQLVVIKTAEEQNFLQLQTSRSNRFSWMGLSDLNQEGTWQWVDGSPLSPSFQRYWNSGEPNNSGNEDCAEFSGSGWNDNRCDVDNYWICKKPAACFRDE
modifications: bait human Fc-tagged dimer
B3: ADP156 (protein)
chain: MAILSFLPVLATESDWADCKSPQPWGHMLLWTAVLFLAPVAGTPAAPPKAVLKLEPQWINVLQEDSVTLTCRGTHSPESDSIQWFHNGNLIPTHTQPSYRFKANNNDSGEYTCQTGQTSLSDPVHLTVLSEWLVLQTPHLEFQEGETIVLRCHSWKDKPLVKVTFFQNGKSKKFSRSDPNFSIPQANHSHSGDYHCTGNIGYTLYSSKPVTITVQAPSSSPM
modifications: bait human Fc-tagged dimer
B4: ADP338 (protein)
chain: MAPRAARAPATLLLALGAVLWPAAGAWELTILHTNDVHSRLEQTSEDSSKCVNASRCMGGVARLFTKVQQIRRAEPNVLLLDAGDQYQGTIWFTVYKGAEVAHFMNALRYDAMALGNHEFDNGVEGLIEPLLKEAKFPILSANIKAKGPLASQISGLYLPYKVLPVGDEVVGIVGYTSKETPFLSNPGTNLVFEDEITALQPEVDKLKTLNVNKIIALGHSGFEMDKLIAQKVRGVDVVVGGHSNTFLYTGNPPSKEVPAGKYPFIVTSDDGRKVPVVQAYAFGKYLGYLKIEFDERGNVISSHGNPILLNSSIPEDPSIKADINKWRIKLDNYSTQELGKTIVYLDGSSQSCRFRECNMGNLICDAMINNNLRHTDEMFWNHVSMCILNGGGIRSPIDERNNGTITWENLAAVLPFGGTFDLVQLKGSTLKKAFEHSVHRYGQSTGEFLQVGGIHVVYDLSRKPGDRVVKLDVLCTKCRVPSYDPLKMDEVYKVILPNFLANGGDGFQMIKDELLRHDSGDQDINVVSTYISKMKVIYPAVEGRIKFSTGS
modifications: bait human Fc-tagged dimer
B5: ADP365 (protein)
chain: MALGSPGLLFLLFSSLRADTQEKEVRAMVGSDVELSCACPEGSRFDLNDVYVYWQTSESKTVVTYHIPQNSSLENVDSRYRNRALMSPAGMLRGDFSLRLFNVTPQDEQKFHCLVLSQSLGFQEVLSVEVTLHVAANFSVPVVSAPHSPSQDELTFTCTSINGYPRPNVYWINKTDNSLLDQALQNDTVFLNMRGLYDVVSVLRIARTPSVNIGCCIENVLLQQNLTVGSQTGNDIGERDKITENPVSTG
modifications: bait human Fc-tagged dimer
B6: ADP396 (protein)
chain: PSLIKQQVLKNVRIDPSSLSFNMWKEIPIPFYLSVYFFDVMNPSEILKGEKPQVRERGPYVYREFRHKSNITFNNNDTVSFLEYRTFQFQPSKSHGSESDYIVMPNILVLGAAVMMENKPMTLKLIMTLAFTTLGERAFMNRTVGEIMWGYKDPLVNLINKYFPGMFPFKDKFGLFAELNNSDSGLFTVFTGVQNISRIHLVDKWNGLSKVDFWHSDQCNMINGTSGQMWPPFMTPESSLEFYSPEACRSMKLMYKESGVFEGIPTYRFVAPKTLFANGSIYPPNEGFCPCLESGIQNVSTCRFSAPLFLSHPHFLNADPVLAEAVTGLHPNQEAHSLFLDIHPVTGIPMNCSVKLQLSLYMKSVAGIGQTGKIEPVVLPLLWFAESGAMEGETLHTFYTQLVLMPKVMHY
modifications: bait human Fc-tagged dimer
B7: ADP288 (protein)
chain: MDHSHHMGMSYMDSNSTMQPSHHHPTTSASHSHGGGDSSMMMMPMTFYFGFKNVELLFSGL
modifications: also: human Fc-tagged dimer
B8: ADP101 (protein)
chain: MWSTRSPNSTAWPLSLEPDPGMASASTTMHTTTIAEPDPGMSGWPDGRMETSTPTIMD
modifications: also: human Fc-tagged dimer
B9: ADP348 (protein)
chain: MAASAGAGAVIAAPDSRRWLWSVLAAALGLLTAGVSALEVYTPKEIFVANGTQGKLTCKFKSTSTTGGLTSVSWSFQPEGADTTVSFFHYSQGQVYLGNYPPFKDRISWAGDLDKKDASINIENMQFIHNGTYICDVKNPPDIVVQPGHIRLYVVEKENLPVFP
modifications: bait human Fc-tagged dimer
B10: ADP301 (protein)
chain: MAKLIALTLLGMGLALFRNHQSSYQTRLNALREVQPVELPNCNLVKGIETGSEDLEILPNGLAFISSGLKYPGIKSFNPNSPGKILLMDLNEEDPTVLELGITGSKFDVSSFNPHGISTFTDEDNAMYLLVVNHPDAKSTVELFKFQEEEKSLLHLKTIRHKLLPNLNDIVAVGPEHFYGTNDHYFLDPYLQSWEMYLGLAWSYVVYYSPSEVRVVAEGFDFANGINISPDGKYVYIAELLAHKIHVYEKHANWTLTPLKSLDFNTLVDNISVDPETGDLWVGCHPNGMKIFFYDSENPPASEVLRIQNILTEEPKVTQVYAENGTVLQGSTVASVYKGKLLIGTVFHKALYCEL
modifications: bait human Fc-tagged dimer

Molecular target: Circumsporozoite protein (CSP) (Plasmodium falciparum (isolate 3D7), UniProt Q7K740)
Sequence (Q7K740 19-374): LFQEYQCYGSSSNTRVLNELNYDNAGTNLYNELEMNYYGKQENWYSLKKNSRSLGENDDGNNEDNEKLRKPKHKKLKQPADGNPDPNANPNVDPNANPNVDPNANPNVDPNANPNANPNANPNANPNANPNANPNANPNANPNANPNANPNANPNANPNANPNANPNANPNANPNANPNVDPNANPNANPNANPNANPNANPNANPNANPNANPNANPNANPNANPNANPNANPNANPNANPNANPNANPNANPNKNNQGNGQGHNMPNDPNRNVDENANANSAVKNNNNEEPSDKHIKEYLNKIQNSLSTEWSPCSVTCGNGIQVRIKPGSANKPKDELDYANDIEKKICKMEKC
Test: AVEXIS screen signal:noise (double-corrected)

Point of comparison: B8, binding score 1.1. Against it:
- B1 — higher, 2.59
- B2 — lower, 0.72
- B3 — higher, 1.12
- B4 — higher, 1.27
- B5 — higher, 2.12
- B6 — higher, 2.67
- B7 — lower, 0.576
- B9 — lower, 0.706
- B10 — higher, 1.58
